Assay results published in patent US20110300561.

Assays:
Asp-Lys = target: T1, Asp-Lys
T1 chain: DK

Lys-Phe = target: T2, Lys-Phe
T2 chain: KF

Arg-Ala = target: T3, Arg-Ala
T3 chain: RA

Phe-Val = target: T4, Phe-Val
T4 chain: FV

Lys-Leu = target: T5, Lys-Leu
T5 chain: KL

Gly-Ser = target: T6, Gly-Ser
T6 chain: GS

Arg-Leu = target: T7, Arg-Leu
T7 chain: RL

Arg-Ile = target: T8, Arg-Ile
T8 chain: RI

Ala-Ser = target: T9, Ala-Ser
T9 chain: AS

Ser-His = target: T10, Ser-His
T10 chain: SH

Arg-Val = target: T11, Arg-Val
T11 chain: RV

His-Leu = target: T12, His-Leu
T12 chain: HL

Gly-Lys = target: T13, Gly-Lys
T13 chain: GK

B1: Staphylococcus aureus N-Succinyl-L,L-DAP Desuccinylase (DapE) (protein)
chain: MWKEKVQQYEDQIINDLKGLLAIESVRDDAKASEDAPVGPGPRKALDYMYEIAHRDGFTTHDVDHIAGRIEAGKGNDVLGILCHVDVVPAGDGWDSNPFEPVVTEDAIIARGTLDDKGPTIAAYYAIKILEDMNVDWKKRIHMIIGTDEESDWKCTDRYFKTEEMPTLGFAPDAEFPCIHGEKGITTFDLVQNKLTEDQDEPDYELITFKSGERYNMVPDHAEARVLVKENMTDVIQDFEYFLEQNHLQGDSTVDSGILVLTVEGKAVHGMDPSIGVNAGLYLLKFLASLNLDNNAQAFVAFSNRYLFNSDFGEKMGMKFHTDVMGDVTTNIGVITYDNENAGLFGINLRYPEGFEFEKAMDRFANEIQQYGFEVKLGKVQPPHYVDKNDPFVQKLVTAYRNQTNDMTEPYTIGGGTYARNLDKGVAFGAMFSDSEDLMHQKNEYITKKQLFNATSIYLEAIYSLCVEE
Activity (S. aureus DapE Qualitative Dipeptidase Activity, TLC assay) (Asp-Lys): +
Activity (S. aureus DapE Qualitative Dipeptidase Activity, TLC assay) (Lys-Phe): ++
Activity (S. aureus DapE Qualitative Dipeptidase Activity, TLC assay) (Arg-Ala): +++
Activity (S. aureus DapE Qualitative Dipeptidase Activity, TLC assay) (Phe-Val): +++
Activity (S. aureus DapE Qualitative Dipeptidase Activity, TLC assay) (Lys-Leu): ++
Activity (S. aureus DapE Qualitative Dipeptidase Activity, TLC assay) (Gly-Ser): +
Activity (S. aureus DapE Qualitative Dipeptidase Activity, TLC assay) (Arg-Leu): +++
Activity (S. aureus DapE Qualitative Dipeptidase Activity, TLC assay) (Arg-Ile): +++
Activity (S. aureus DapE Qualitative Dipeptidase Activity, TLC assay) (Ala-Ser): +
Activity (S. aureus DapE Qualitative Dipeptidase Activity, TLC assay) (Ser-His): ++
Activity (S. aureus DapE Qualitative Dipeptidase Activity, TLC assay) (Arg-Val): +++
Activity (S. aureus DapE Qualitative Dipeptidase Activity, TLC assay) (His-Leu): +
Activity (S. aureus DapE Qualitative Dipeptidase Activity, TLC assay) (Gly-Lys): +
